# Tested on: Saccharomyces cerevisiae
# Assay: protein stability index of tFT-peptide fusion in wild type (PSI (0-1 scale)); higher = more stable (slower turnover)
# Details: genetic background: wild type
# 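Also: PSI derived as read-weighted mean over the 8 sorting bins, only variants exceeding 10 total reads kept, mCherry placed adjacent to the peptide and sfGFP distal.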
row,Sequence,protein stability index
1,CLTSLPILLFFR,0.0745
2,CLVFLPILLFFR,0.0802
3,CLVKLPILLFFR,0.06
4,CLVSFPILLFFR,0.0594
5,CLVSLMILLFFR,0.256
6,CLVSLPELLFFR,0.176
7,CLVSLPIHLFFR,0.0666
8,CLVSLPILFFFR,0.499
9,CLVSLPILHFFR,0.628
10,CLVSLPILLFCR,0.0631
11,CLVSLPILLFFM,0.299
12,CLVSLPILLHFR,0.286
13,CLVSLPILLKFR,0.178
14,CLVSLPILLSFR,0.187
15,CLVSLPILLVFR,0.0722
16,CLVSLPILPFFR,0.0842
17,CLVSLPILVFFR,0.0876
18,CLVSLPILWFFR,0.566
19,CLVSLPIMLFFR,0.0325
20,CLVSLPIPLFFR,0.0774
21,CLVSLPIVLFFR,0.0839
22,CLVSLPKLLFFR,0.0835
23,CLVSLPSLLFFR,0.0935
24,CLVSSPILLFFR,0.272

row,Sequence,protein stability index
1,CPVSLPILLFFR,0.0943
2,CSLRVLLPLYFR,0.0975
3,DLYMCSVGCWFR,0.453
4,ELVSLPILLFFR,0.0794
5,FSLRVLLPLYFR,0.268
6,GAYMCSVGCWFR,0.427
7,GDYMCSVGCWFR,0.462
8,GLIMCSVGCWFR,0.197
9,GLLMCSVGCWFR,0.22
10,GLMMCSVGCWFR,0.237
11,GLPMCSVGCWFR,0.267
12,GLWMCSVGCWFR,0.315
13,GLYMCAVGCWFR,0.279
14,GLYMCCVGCWFR,0.303
15,GLYMCSCGCWFR,0.46
16,GLYMCSNGCWFR,0.397
17,GLYMCSPGCWFR,0.246
18,GLYMCSVGAWFR,0.451
19,GLYMCSVGCFFR,0.408
20,GLYMCSVGCIFR,0.587
21,GLYMCSVGCSFR,0.621
22,GLYMCSVGCTFR,0.609
23,GLYMCSVGCWDR,0.627
24,GLYMCSVGCWFY,0.398

row,Sequence,protein stability index
1,GLYMCSVICWFR,0.231
2,GLYMCSVLCWFR,0.274
3,GLYMCSVSCWFR,0.338
4,GLYMISVGCWFR,0.17
5,GLYQCSVGCWFR,0.434
6,GLYSCSVGCWFR,0.451
7,GLYYCSVGCWFR,0.249
8,GMYMCSVGCWFR,0.271
9,GNYMCSVGCWFR,0.405
10,MITLPMCPLLLR,0.302
11,MSLRVLLPLYFR,0.314
12,QLVSLPILLFFR,0.0846
13,QSLRVLLPLYFR,0.283
14,RCTRLDAIYFRI,0.46
15,RILRVLLPLYFR,0.386
16,RLTRLDAIYFRI,0.379
17,RQLRVLLPLYFR,0.216
18,RRLRVLLPLYFR,0.292
19,RSLAVLLPLYFR,0.34
20,RSLRVALPLYFR,0.189
21,RSLRVLLHLYFR,0.254
22,RSLRVLLLLYFR,0.217
23,RSLRVLLPDYFR,0.64
24,RSLRVLLPGYFR,0.624

row,Sequence,protein stability index
1,RSLRVLLPLEFR,0.601
2,RSLRVLLPLTFR,0.379
3,RSLRVLLPLYFL,0.319
4,RSLRVLLPLYFRF,0.195
5,RSLRVLLPLYFRH,0.284
6,RSLRVLLPLYFRQ,0.205
7,RSLRVLLPLYFRV,0.164
8,RSLRVLLPLYIR,0.255
9,RSLRVLLPLYPR,0.65
10,RSLRVLLPLYWR,0.301
11,RSLRVLLTLYFR,0.391
12,RSLRVLNPLYFR,0.359
13,RSLRVLWPLYFR,0.181
14,RSLRVQLPLYFR,0.136
15,RSLRVSLPLYFR,0.15
16,RSLRVTLPLYFR,0.159
17,RSPRVLLPLYFR,0.334
18,RSRRVLLPLYFR,0.297
19,RSSRVLLPLYFR,0.346
20,RVCRLDAIYFRI,0.403
21,RVIRLDAIYFRI,0.331
22,RVLRVLLPLYFR,0.369
23,RVQRLDAIYFRI,0.426
24,RVTQLDAIYFRI,0.524

row,Sequence,protein stability index
1,RVTRIDAIYFRI,0.337
2,RVTRLDAINFRI,0.683
3,RVTRLDAIYFCI,0.378
4,RVTRLDAIYFPI,0.703
5,RVTRLDAIYFRIG,0.335
6,RVTRLDAIYFRIP,0.247
7,RVTRLDAIYFRIV,0.0601
8,RVTRLDAIYFRP,0.643
9,RVTRLDAIYVRI,0.469
10,RVTRLDALYFRI,0.32
11,RVTRLDFIYFRI,0.171
12,RVTRLDIIYFRI,0.271
13,RVTRLDNIYFRI,0.484
14,RVTRLDWIYFRI,0.164
15,RVTRLGAIYFRI,0.317
16,RVTRLQAIYFRI,0.202
17,RVTRVDAIYFRI,0.442
18,RYLRVLLPLYFR,0.335
19,SITLPMCPLLLR,0.248
20,SSLRVLLPLYFR,0.252
21,VLVSLPILLFFR,0.0972

# Reference: the supplement of paper PMC10724198
